Molecular target: H7N9 HA (A/Shanghai/1/2013) (Influenza A virus A/Shanghai/1/2013 …, strain)
Assay: not given
Settings: not given

Binder | binding result
H7-Ab13 (antibody, V domains shown) VH: EVQLVESGPGLVKPSQTLSLTCTVSDGTIGSDAYHWSWIRQYPGRGLEWIGSFYYSGNTYYNPSLKSRLTISVDTSKNQFSLKLNSVTAADTAVYYCARNSAYCTDTRCYNGGGWFHPWGQGTTVTVSS VL: DIVMTQSPGTLSLSPGERATLSCRASQSVSSTYLAWYQQKPGQAPRFLIYGASRRATGIPDRFSGSGSGTDFTLTISRVEPEDFTVYYCQQYGSSPITFGQGTRLEIK | binds
H7-Ab7 (antibody, V domains shown) VH: QVQLQESGGGLVQPGGSLRLSCAASGFTFSAYAMNWVRQAPGKGLDWVSGIGGNGGITKYADSVKGRFTISRDNSKKTLYLQMNSLTAEDTAVYYCAKDASWDVRGWFDPWGQGTLVTVSS VL: not shown | binds
H7-Ab12 (antibody, V domains shown) VH: EVQLVESGPGLVKPAQTLSLTCTVSGGSISSGGDYWSWIRQHPGKGLEWIGYIYYSGNAFYNPSLKSRVSMSVDTSKNQFSLKLSSVSAADTAVYYCARVRGVYFWGQGTLATVSS VL: EIVMTQSPGTLSLSPGERATLSCRASQSVSSSHLAWYQQKPGQAPRLLIYGASSRATGIPDRFSGSGSGTDFTLTISRLEPEDFAVYYCQQYGSSLPPWTFGQGTKVEIK | binds
H7-Ab8 (antibody, V domains shown) VH: EVQLVQSGGGVVLPGRSLRLSCAASGFTFSNHGMHWVRQAPGKGLEWMAVIWSDGTTKYYADSVKGRFTISRDNSKNTVYLQMNSLRAEDTAVYYCAREVIYSGYFFDHWGQGTTVTVSS VL: not shown | binds
H7-Ab14 (antibody, V domains shown) VH: EVQLVESGPRLVKPSGTLSLTCAVSDDSISSAGYYWGWIRQSPGKGLEWIAAFFFGGSAYYNPSLKSRLTISTDTSENQFSLSLASVTAADTAVYYCAVIQLSTPPVPFEIWGQGTLVTVSS VL: EIVMTQSPGTLSLSPGERATLSCRASQIISSNYLAWYQQKPGQAPRLLIFGASSRATGTPDRFSGSGSGTDFTLTISRLEPEDFVVYYCHQYDSSWYTFGQGTKVEIK | binds
H7-Ab10 (antibody, V domains shown) VH: WVQLVESGGGLVQPGGSLRLSCVDSGSTFSKYWMTWVRQAPGKGLEWVANIKEDGSKEYYMESLKGRFTISRDNAKNSLYLQISTLRAEDTAVYYCATSSGWRFEVWGRGTTVTVSS VL: QSALTQPPSASGSPGQSVTISCTGTSSDVGTYNYVSWYQQQADKAPKLIIFDVDKRPSGVPDRFSGSKSGNTASLTVSGLQADDEADYYCSSYAGTKHWIFGGGTKLTVL | binds
H7-Ab11 (antibody, V domains shown) VH: QVQLQESGPRLVKPSQTLSLTCAVSGGSITSNDYNWSWIRQHPGKGLEWIGYIYHSGNTFYNPALESRVSMSVDTSKNQFSLRLTSVTAADTAVYFCARTQRSTVAHIVGPVQGRFHFDYWSQGTLVTVSS VL: DIQMTQSPGTLSLSPGERVTLSCRASRSVSPYYLAWYQQKPGQAPRLLIYGSSTRATGIPDRFSGSGSGTDFTLTINKLEPEDFAIYYCQQYGRSSGFVFGPGTKVDIK | binds

Molecular target: tetanus toxoid (Clostridium tetani, production strain …, UniProt P04958)
Assay: not given
Settings: not given

Binder | binding result
TT-Ab8 (antibody, V domains shown) VH: EVQLVESGGGLVQPGGSLRLSCAASGFTFSYYDMNWVRQAPGKGLEWLSYISGSGGVIYYADSVKGRFTISRDNAKNSLFLQMNSLRAEDTAVYYCARDPSPGRLGFFDYWGQGTLVTVSS VL: EIVMTQSPAILSVSPGERATLSCRASQRVSSNLAWYQQKPGQAPRLLIYGASTRATGIPARFSGSGSGTEFTLTISSLQSEDCAIYYCQQYNNWPRTFGQGTKVEIK | binds
TT-Ab6 (antibody, V domains shown) VH: EVQLLESGGGLVRPGGSLRLSCAASGFSFNDHYMTWVRQAPGKGLEWVSYISDGRVTTNYAASVKGRFIISRDNTKKTVYLQMNSLTAEDTAVYYCARVGPWPVMKGAFDSWGQGTLVTVSS VL: DIQMTQSPGTLSLSPGERATISCRASQSVSSDYLVWYQQKPGQAPRLLIYGASRRATGIPDRFSGSGSGTDFTLTISRLEPEDFAVYYCQQYGSSPLFAFGPGTKVEIK | binds
TT-Ab11 (antibody, V domains shown) VH: QVQLQESGPGLVKPSQTLSLTCNVSDGSISSDGYYWSWLRQHPGKGPEWIGYIHHSGHPYYNPSLKSRVTMSIDTSKNQFALKLSSVTAVDTAMYYCARVRGTGYYPGTLDLWGQGTLVTVSS VL: EIVLTQSPGTLSLSPGERATLSCRASQSVSSSYFAWYQQIPGQAPRLLIYGTSNRATGIPDRFSGSGSGKDFTLTISRLEPEDFAVYYCQQFGSSPLTFGGGTKVEIK | binds
TT-Ab2 (antibody, V domains shown) VH: EVQLVESGAEVKKPGASVKLSCKASGYTVTSDYMHWVRQAPGQGLEWMGIINPSDGSTNYPRKFQGRVTMTRDTSTRTVYMEVSSLRSEDTAVYYCAGGGQRFTFDYWGQGATVTVSS VL: QSALTQPASVSGSPGQSITISCTGTSGNVGSHNLVSWYQQHPGEAPKLVISDINRRPSGVSNRFSGSKSGNTASLTISGLQAEDEADYFCCSYAGNSNVIFGGGTKLTVL | binds
TT-Ab13 (antibody, V domains shown) VH: EVQLVESGAEVKKPGESLRISCKGSGYSFTTYWIGWVRQMPGKGLEWIGIIYAGDSDTRYSPSFQGQVTMPVDKSITTAYLQWSSLKASDTAMYYCARQGDPSSYLTSGFEFWGQGTLVTVSS VL: DIQMTQSPSTLSASVGDGVTITCRASQSISRWLAWYQQKPGKAPKLLIYQASRLESGVPSRFSGSGSGTEFTLSISSLQPDDFATYYCHQYNSYSQTFGQGTKVEIK | binds
TT-Ab5 (antibody, V domains shown) VH: EVQLVQSGAEVKKPGSSVKVSCTAPGVTFSTYPIDWVRQAPGQGLEWMGGIIPISGSPKYAQKFQGRVAITADGFTNTAYLELSSLRSEDTAVYYCATRESGYDGQFDYWGQGTLVTVSS VL: QSVLTQPPSASGTPGQRVTISCTGSTSNIGNNYVYWYQQVPGTAPTLLIYRSNQRPSGVPDRFSGSKSGTSASLAISGLRSEDEADYYCATWDDSLGVVFGGGTKLTVL | binds
TT-Ab1 (antibody, V domains shown) VH: QVQLQESGAEVKNLGASVKVSCKASGYIFTNYGITWVRQAPGQGLEWIGWTTIYNGNTNYARKLQGRVTMTTGTSTRTAYMELRSLKSDDTAMYYCARGLRHYHDGSPLEYWGQETTVTVSS VL: DIVMTQSPGTLSLSPGERVTLSCRASQSVGSSYLAWYQQKPGQTPRLLVFGASSRATGIPDRFSGSGSGTDFTLTISRLEPEDFAVYYCQLYGNSLITFGQGTRLEIK | binds

Molecular target: T1, H1N1 HA (A/California/04/2009) (Influenza A virus A/California/04/2009 …, UniProt C3W5S1, strain)
T1 construct: source: bought: Sino Biological
Assay: SPR
Settings: both partners purified

Binder | Kd
H1-Ab32 (antibody, V domains shown, IgG1; source: HEK293T, transfected with heavy and light chain plasmids; purified mAbs) VH: EVQLVESGGGLVQPGGSLRLSCAASSFTFSNYAMSWVRQAPGKGLEWVSLINSGGGDKYYADSVKGRFIVSRDNSKNALYLQMNSLRAEDTAVYFCARVVGRETFGLVIPIYYFDYWGQGDLVTVSS VL: EIVLTQSPATLSLSPGERATLSCRASQSVSSFLAWYQQKPGQAPRLLIYDASNRATGVPARFSGSGSGTDFTLTISSLEPEDFAVYYCQQCSNWPPLTFGGGTKVEIK | 0.56 nM
H1-Ab30 (antibody, V domains shown, IgG1; source: HEK293T, transfected with heavy and light chain plasmids; purified mAbs) VH: EVQLVQSGGGLVQPGGSLRLSCAASGFTFSSYAMSWVRQAPGKGLEWVSTISGSGISTYYADSVKGRFTISRDNSKNTLYLQMNSLRADDTAVYYCAKALATHIVMAGTLDFWGQGTLVTVSS VL: EIVMTQSPATLSVSPEERATLSCRASQSVTNSLAWYQQKPGQAPRLLIYGASTRATGIPARFSGSGSGTEFTLTISSLQSEDFAVYYCQQYNNWPPLTFGGGTKVEIK | 0.066 nM
H1-Ab43 (antibody, V domains shown, IgG1; source: HEK293T, transfected with heavy and light chain plasmids; purified mAbs) VH: EVQLVESGGNLVQPGGSLTLSCAVSGFAFSNFEANWVRQAPGKGLEWVSYISKSGLTKYYSDSVKGRFTISRDNAKSSLYLQMNSLRAEDTAVYYCVSPIPVAGTMEIYWGQGTLVTVSS VL: DIQMTQSPATLSVFPGERATLSCRASQSIRSDLAWYQQKPGQPPRLLIYGASTRATGIPARFSGSGSETEFTLTISSLQSEDFAVYYCQQYNNWPPLTFGGGTKVEIK | 0.155 nM
H1-Ab19 (antibody, V domains shown, IgG1; source: HEK293T, transfected with heavy and light chain plasmids; purified mAbs) VH: EVQLVESGGGLVKPGGSLRLSCAASGFTFSSYSMHWVRQAPGKGLEWVSSISSIGTYIYYADSVKGRFTISRDNAKNSLYLQLNSLRVEDTAVFYCATGVTSSYGGYSGYFDSWGQGTLVTVSS VL: DIVMTQSPSSLSASVGDRVTITCQASQDISKHLNWYQQKPGKAPKLLIYDASNLETGVPSRFSGSGSGTDFSFTISSLQPEDIATYYCQQYDNPFLTFGGGTKVEIK | 0.001 nM
H1-Ab59 (antibody, V domains shown, IgG1; source: HEK293T, transfected with heavy and light chain plasmids; purified mAbs) VH: EVQLVESGPGLVKPSQTLSLTCTVSGGSVSSGGYSWTWIRQPAGKGLEWIGRIYFTGSTNYNPSLKSRITISVDTSKNQFSLRLSSVTAADTAVYYCAREDDFVWGSYRRFAYFDYWGQGTLVTVSS VL: EIVMTQSPSSLSASVGDRVNITCQASQDISNYLNWYQQKPGEAPKLLIYGASSLQTGVPSRFSGSGSGTNFIFTISSLQPEDLATYYCQQYDNLPMYTFGQGTKVEIK | 14 nM
H1-Ab41 (antibody, V domains shown, IgG1; source: HEK293T, transfected with heavy and light chain plasmids; purified mAbs) VH: QVQLQESGGGVVQPERSLRLSCAASGFKFSSYAMHWVRQAPGKGLEWVAVFWSDGTTKYYANSVRGRFTVSRDNSKNMLYLQINSLRAEDTAVYYCARGFLLPYYGSSGYEYFFDFWGQGTTVTVSS VL: AIGMTQSPESLAVSLGERATINCKSGQSILHSSNNKNYLAWYQQKPGQPPKLVIYWASTRESGVPDRFSGSGSETDFTLTISSLQAEDVAVYYCQQYYSTPSFGGGTKVEIK | 0.0819 nM
H1-Ab56 (antibody, V domains shown, IgG1; source: HEK293T, transfected with heavy and light chain plasmids; purified mAbs) VH: EVQLVQSGPGLVKPSETLSLTCTVSGGSISSDYWSWIRQPPGKGLEWIGYIHQNGRTNSNPSLRGRVSMLVDTSESQFSLKLGSVTAADTAVYYCARDQAGIRRSNAFDIWGQGTLVTVSS VL: DIVMTQSPSSLSASVGDRVTITCRASQSISTYLNWYQQKPGKAPKLLIYAASTLQSGVPSRFSGSASGSEFTLTISSLQPEDFASYYCQQSYDIPQTFGPGTKVEIK | 0.372 nM
H1-Ab55 (antibody, V domains shown, IgG1; source: HEK293T, transfected with heavy and light chain plasmids; purified mAbs) VH: EVQLVESGPGLVKPSETLSLTCTVSGGSISSDYWSWIRQAPGKGLEWLAYIHHNGRTNYNPSLGSRVAISIDTSRSQFSLKLGSVTAADTAVYYCARDQTGIRKSNAFDLWGQGTLVTVSS VL: DIQLTQSPSSLSASVGDRVTITCRASQNIRSYLNWYQQKPGKAPKLLIYGVSTLQNGVPSRFSGSASGSDFTLTISSLQPEDFATYHCQQSYDTPQTFGPGTKVEIK | 0.467 nM

— article PMC5551578 (The Journal of Experimental Medicine, 2017)
